For experiment [1], the system named is PC3 cells. In words: In vitro cell viability (cell kill) assay, CCK8. It counts as cell-based, human. The source says:
(§1) PRLR-overexpressing cells, including HEK293, PC3, MCF7 and NCI-N87, were generated to assess the ability of anti-PRLR conjugated antibodies to reduce cell viability. For comparative purposes, PC3 and T47D cells with overexpressed ErbB2 were also generated, as well as an MCF7 cell line over-expressing both hPRLR and hErbB2. Briefly, Lipofectamine® 2000-mediated transfection methodology was utilized to generate HEK293 cells expressing human PRLR (HEK293/hPRLR) or human ErbB2 (HEK293/hErbB2). Lipofectamine LTX with Plus Reagent was used to generate PC3 cells expressing human PRLR (PC3/hPRLR) or human ErbB2 (PC3/hErbB2). Lentiviral-mediated transduction was utilized to generate MCF7 cells expressing human PRLR (MCF7/hPRLR), NCI-N87 cells expressing human PRLR (NCI-N87/hPRLR), T47D cells over-expressing human ErbB2 (T47D/hErbB2), and MCF7 cells expressing both human PRLR and human ErbB2 (MCF7/hPRLR/hErbB2). All lines were selected for at least two weeks in complete growth media plus appropriate selection reagents. Stably expressing populations were enriched for PRLR expression via FACS using the anti PRLR antibody Control I.
(§2) Next, the ability of anti-PRLR-DM1 antibody-drug conjugates (i.e., anti-PRLR antibodies conjugated to DM1 via a non-cleavable linker [SMCC]) to reduce cell viability was determined using in vitro cell based assays. Cells were seeded in PDL-coated 96 well plates at 1500 to 10000 cells per well in complete growth media and allowed to grow overnight. For cell viability curves, ADCs or free DM1 (as the methyl disulfide derivative DM1-SMe) were added to the cells at final concentrations ranging from 500 nM to 5 pM and incubated for 3 days. The 293, PC3 and T47D cells were incubated with CCK8 (Dojindo, Rockville, Md.) for the final 1-3 hours and the absorbance at 450 nm (OD450) was determined on a Flexstation3 (Molecular Devices, Sunnyvale, Calif.). MCF7 cells were treated with Hoechst 33342 nuclear stain while being fixed with 4% formaldehyde. Images were acquired on the ImageXpress micro XL (Molecular Devices, Sunnyvale, Calif.) and nuclear counts were determined via Columbus image analysis software (Perkin Elmer, Shelton, Conn.). Background OD450 values (PC3, 293, and T47D) or nuclear counts (MCF7) from digitonin (40 nM) treated cells was subtracted from all wells and viability was expressed as a percentage of the untreated controls. IC50 values were determined from a four-parameter logistic equation over a 10-point response curve (GraphPad Prism).

For experiment [2], the system named is HEK293 (293) cells. The experiment is described as follows: In vitro cell viability (cell kill) assay, CCK8. It counts as cell-based, human. The conditions noted are these: 293.
Text: as §1, §2

The test system of experiment [3] is PC3/PRLR tumors. In words: PC3/PRLR xenograft, tumor size and tumor growth inhibition. In kind it is in vivo, SCID mice. The source says: (§3) Briefly, 20×10^6 MCF7/PRLR cells (ATCC HTB-22 transfected with full length hPRLR as previously described) were implanted subcutaneously into the left mammary fat pad of female NCr nude mice. In other studies, 10×10^6 PC3/PRLR (ATCC CRL-1435 transfected with full length hPRLR as previously described) were implanted subcutaneously into the left flank of male SCID mice. Additionally, 10×10^6 parental T47D (ATCC HTB-133) or 7.5×10^10 T47D #11 cells (ATCC HTB-133 serially passaged in vivo as described below) were subcutaneously implanted into the left flank of female CB17 SCID mice. All mice were obtained from Taconic (Hudson, N.Y.). Each bolus of cells was supplemented with a 90-day estrogen release pellet (1.7 mg/pellet; Innovative Research America, Sarasota Fla.). […] Control reagents included PBS vehicle, free methyl-disulfide DM1 (DM1-SMe) and isotype Control 1-DM1.
(§4) In multi-dose studies, mice were dosed once a week for a total of three weeks with tumor volumes and body weights being monitored twice weekly throughout the study. Test ADCs were dosed at 5 and/or 15 mg/kg in the multi-dose studies. In single-dose studies, mice received a single dose of test ADC, and tumor volumes and body weights were monitored twice weekly throughout the study. Test ADCs were dosed at 1, 2.5, 5, and 15 mg/kg in the single-dose studies. Average tumor size as well as tumor growth inhibition relative to the vehicle treated group were calculated for each group. Tumors were measured with calipers twice a week until the average size of the vehicle group reached 1000 mm^3. Tumor size was calculated using the formula (length×width^2)/2. Tumor growth inhibition was calculated according to the following formula: (1−((Tfinal−Tinitial)/(Cfinal−Cinitial)))*100, where T (treated group) and C (control group) represent the mean tumor mass on the day the vehicle group reached 1000 mm^3. […] Results are summarized in Tables 21-25 (multi-dose) and Table 26 (single dose). (NT=not tested in the particular experiment shown).

Experiment [4] concerns MCF7/PRLR tumors. In words: MCF7/PRLR breast cancer xenograft, tumor size and tumor growth inhibition. It counts as in vivo, NCr nude mice. The conditions noted are these: for Average Tumor Growth Inhibition (%) / Final Tumor size mm^3 (mean ± SEM): MCF7/PRLR tumors TRIAL #1, NCr Nude mice, Day 52.
Text: as §3, §4

The mark [5] stands for this setting: PC3/PRLR tumors TRIAL #1, SCID mice, multi-dose 5 mg/kg, Day 63.

B1: H1H6765P-SMCC-DM1 (conjugate)
VH: EVQLVESGGGVVRPGGSLRLSCVGSGFSFDDHGMNWVRQGPGKGLEWVSGFNWNGGSTNYAESVKGRFTISRDNARNSLFLQMNSLRAEDTALYYCVRGRSGWFNDAFDVWGPGTMVTVSS
VL: EIVLTQSPGTLSLSPGERATLSCRASQTINSNYLAWYRQKPGQTPRLLIYGTSSRATGIPDRFSGSGSGTDFSLTISRLEPEDFAVFYCQQYAGLPTFGPGTKVDIK
B1: in experiment [1] (Table 18), the “% Kill” value is reported as 80% and the concentration for half-maximal inhibition (IC50) is 80 nM.

B2: H1H6765P-mc-VC-PAB-MMAE (conjugate)
VH: B1 VH
VL: B1 VL
As to B2, the “% Kill” value in experiment [1] (Table 18) stood at 29%.

B3: H1H6960N-DM1 (conjugate)
VH: EVQLVESGGGLVKPGGSLRLSCAASGITFSSYSMNWVRQAPGKGLEWVSSISTRSSLIHYADSVKGRFTISRDNAKNSLYLQMNSLRDEDTAVYYCARWDAAAAFDYWGQGTLVIVSS
VL: DIQLTQSPSFLSASVGDRVTITCWASQGISSYLAWYQQKPGKAPKLLIYVASTLQSGVPSRFSGSGSGTEFTLTISSLQPEDFATYFCQQLNSYPLTFGGGTKVEIK
Consider B3, for which inhibition in experiment [2] (Table 11, 3 days) was half-maximal at 75 nM (IC50). Besides, in experiment [1] (Table 11, 3 days), the “% Kill” value is 80% and inhibition was half-maximal at 150 nM (IC50).

B4: H1H6953N-SMCC-DM1 (conjugate)
VH: EVQLLESGGGLVQPGGTLRLSCAASGFTFSAYAMSWVRQAPGKGLEWVSSINVRAGDTYYADSVKGRFTISRDNSKNTLFLLMNSLRAEDTAAYYCAKARYSSNWGFDFWGQGTLVTVSS
VL: DIVMTQSPDSLTVSLGARTTINCQSSQTILHSSNNHNYLAWYQQKPGLPPKLLIYWSSTRESGVPDRFSGSGSGTDFTLTISSLQAEDVAIYYCQQYSNTPYTFGQGTKLEIN
As to B4, the “% Kill” value in experiment [1] (Table 18) turned out to be 81%.

B5: H1H6953N-mc-VC-PAB-MMD (conjugate)
VH: B4 VH
VL: B4 VL
The molecule B5 yielded an IC50 in experiment [2] (Table 19) of 110 nM.

B6: H1H6953N-mc-VC-PAB-MMAE (conjugate)
VH: B4 VH
VL: B4 VL
Take B6: in experiment [1] (Table 18), the “% Kill” value was found to be 49% and half-maximal inhibition (IC50) required 130 nM.

B7: H1H6953N-mc-VC-PAB-MeNHC3-May (conjugate)
VH: B4 VH
VL: B4 VL
For the molecule B7, in experiment [2] (Table 19), the “% Kill” value amounted to 20%.

B8: H1H6975N-DM1 (conjugate)
VH: EVHLVESGGGLVQPGGSLRLSCAASGFTFSSYEMNWVRQTPGKGLEWISHISSRSVIIYYADSVKGRFTISRDNAKNSLFLQMNSLRAEDTAVYFCAGITIFGIPEYWGQGTLVTVSS
VL: EIVLTQSPATLSLSPGERATLSCRASQSVSSYFAWYQQKPGQAPRLLIYDASSRATGIPTRFSGSGSGTDFTLTISSLEPEDFAVYYCQQRSSWPITFGQGTRLEIK
With B8, the “% Kill” value in experiment [1] (Table 11, 3 days) is recorded as 71%. Besides, the figures for the “Average Tumor Growth Inhibition (%)” value in experiment [3] (setting [5]), in experiment [4] (multi-dose 5 mg/kg) and in experiment [4] (multi-dose 15 mg/kg) were 31%, 118% and 135%, respectively. Besides, the “Final Tumor size mm^3 (mean ± SEM)” value in experiment [3] (setting [5]) was determined as 973 ± 169 mm^3; in experiment [3] (PC3/PRLR tumors TRIAL #1, SCID mice, multi-dose 15 mg/kg, Day 63), 895 ± 63 mm^3; in experiment [4] (multi-dose 5 mg/kg), 125 ± 46 mm^3; in experiment [4] (multi-dose 15 mg/kg), 0 ± 0 mm^3. Further, the “PC3/PRLR tumor growth” value in experiment [3] (multi-dose, especially at 15 mg/kg) is given as “demonstrated inhibition of tumor growth”. In addition, the “MCF7/PRLR tumor growth” value in experiment [4] (first multi-dose trial, 5 and 15 mg/kg) is recorded as “potently inhibited MCF7/PRLR tumor growth”.

B9: H1H6975P-mc-VC-PAB-MMD (conjugate)
VH: B8 VH
VL: B8 VL
Regarding B9, in experiment [2] (Table 19), the IC50 is 110 nM. This counts as sub-micromolar.

B10: H1H6782P-mc-VC-PAB-MMD (conjugate)
VH: EVQLVESGGGLVQPGRSLRLSCAASGFTFDDYAMHWVRQAPGKGLEWVSGIIWNSGHIGYGDSVKGRFTISRDNAKKSLYLQMNSLRAEDTALYYCARDSGRYQSYFDYWGQGTLVTVSS
VL: DIQMTQSPSTLSASVGDRVTITCRASHIISSWLAWYQQKPGKAPKVLIFKASSLESGVPSRFSGSGSGTEFTLTISSLQPDDFATYYCQQYNTYSRTFGQGTKVEIK
Consider B10, for which the IC50 in experiment [2] (Table 19) came to 230 nM.

B11: H1H6782P-mc-VC-PAB-MeNHC3-May (conjugate)
VH: B10 VH
VL: B10 VL
The molecule B11 showed an IC50 in experiment [2] (Table 19) of 60 nM. Against the preceding molecule, the IC50 is about 3.8-fold lower.

B12: H1H6762P-DM1 (conjugate)
VH: QVQLVESGGGVVQPGRSLRLSCAASGFTFSHYGMVWVRQPPGKGLEWVALISFDGTTKYYADSVKGRFTISRDNSKNTLYLQMNSLRAEDTAVYFCVGAIAAAAFDLWGRGTLVTVSS
VL: EIVMTQSPATLSVSPGERATLSCRASQSVSSDLAWYQQKPGQAPRLLIYSASARATGIPARFTGSGSGTDFTLTISSLQSEDFAVYYCQQYNNWPMYTFGQGTKLEIK
As for B12, the “% Kill” value in experiment [2] (Table 11, 3 days) was 89%. In addition, in experiment [1] (Table 11, 3 days), the “% Kill” value came to 78% and half-maximal inhibition (IC50) required 250 nM.

B13: H1H6800P-DM1 (conjugate)
VH: EVQLVESGGGLVQPGRSLRLSCAASGFTFDGYAMHWVRQGPGKGLEWVSGISWYSDTLGYADSVKGRFTISRDNAKNSLYLQMNSLRTEDTAFYYCAKISSSGWAFDYWGQGTLVTVSS
VL: EIVLTQSPGTLSLSPGERATLSCRASHSVSSAYLAWYQQKPGQTPRLLIYGTSSRATGIPDRFSGSGSGTDFTLTISRLEPEDFAVYYCQQYGSSPLFTFGPGTKVDIK
Turning to B13, the “% Kill” value in experiment [1] (Table 11, 3 days) was 72%.

One may read the IC50 as the midpoint of a concentration-inhibition curve. Read a high IC50 as lower potency.

(Values after patent US10925971B2, “Methods of treating PRLR positive breast cancer” (Regeneron Pharmaceuticals, Inc., priority 2016, dated 2021).)
